{"source": "patent US9295682B2", "about": "“Adjuvant immunotherapy for the preventive, curative or palliative treatment of chronic systemic diseases such as cancer, of clinical manifestations associated with diseases like cachexia and correction of adverse effects of drugs such as immunosuppression, neutropenia and lymphopenia, comprising …” (priority 2009, dated 2016)", "molecules": {"B1": {"name": "Interleukin-12 (IL-12) (protein, UniProt P29459 23-219; P29460 23-328, looked up)", "Interleukin-12 subunit alpha": "RNLPVATPDPGMFPCLHHSQNLLRAVSNMLQKARQTLEFYPCTSEEIDHEDITKDKTSTVEACLPLELTKNESCLNSRETSFITNGSCLASRKTSFMMALCLSSIYEDLKMYQVEFKTMNAKLLMDPKRQIFLDQNMLAVIDELMQALNFNSETVPQKSSLEEPDFYKTKIKLCILLHAFRIRAVTIDRVMSYLNAS", "Interleukin-12 subunit beta": "IWELKKDVYVVELDWYPDAPGEMVVLTCDTPEEDGITWTLDQSSEVLGSGKTLTIQVKEFGDAGQYTCHKGGEVLSHSLLLLHKKEDGIWSTDILKDQKEPKNKTFLRCEAKNYSGRFTCWWLTTISTDLTFSVKSSRGSSDPQGVTCGAATLSAERVRGDNKEYEYSVECQEDSACPAAEESLPIEVMVDAVHKLKYENYTSSFFIRDIIKPDPPKNLQLKPLKNSRQVEVSWEYPDTWSTPHSYFSLTFCVQVQGKSKREKKDRVFTDKTSATVICRKNASISVRAQDRYYSSSWSEWASVPCS"}}, "system": "Lewis lung carcinoma (3LL)", "assay": "Lewis lung carcinoma (3LL) survival, 1st experiment (Table A)", "assay_type": "in vivo, C57B1/6 female mice", "settings": "100 days; IM-2 0.5 mg/kg/day alone, IM-2 0.5 mg/kg + Il-2 0.05 μg/animal, or IL-2 0.1 μg/animal alone; i.p., 3 weekly cycles", "description": "Animals: 3-week-old C57B1/6 female mice were used in all the experiments (Table A, Table B, Table C)\nTumor: Lewis lung carcinoma (3LL) was the tumor selected for all the in vivo assessments (Table A, Table B, Table C) in these experiments, with the cells maintained in culture medium and inoculated subcutaneously in the animals at the concentration of 6×10^5 cancer cells (3 LL) for each animal.\nTreatments: All treatments began 24 hours after the inoculation of cancer cells.\nObservation period: The animals were evaluated during an observation period of 100 days in the survival experiment.\nA fourth batch of 20 animals (Group 4) inoculated with 3 LL cells (6×10^5 cells/animal), was treated with 0.5 mg/kg/day of the proteic aggregate of ammonium and magnesium phospholinoleate-palmitoleate anhydride (Table A—Group 4—IM-2) and Interleukin-12 (IL-12), 0.05 g/animal given jointly by intraperitoneal injections in 3 weekly cycles. The animals were followed up for 100 days.\nA fifth batch of 20 animals (Table A—Group 5) inoculated with 3 LL cells (6×10^5 cells/animal) was treated with Interleukin-12 (IL-12), 0.1 μg/animal applied by intraperitoneal injection in 3 weekly cycles. The animals were followed up for 100 days, and the number of survivors was expressed in percentage."}
{"molecule": "B1", "values": [{"measurement": "% Survivors", "value": 50, "unit": "%"}]}
